Target: T1, BRB1 tyrosine kinase substrate peptide
T1 chain: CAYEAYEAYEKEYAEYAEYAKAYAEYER

B1: ITK (protein)
chain: NNFILLEEQLIKKSQQKRRTSPSNFKVRFFVLTKASLAYFEDRHGKKRTLKGSIELSRIKCVEIVKSDISIPCHYKYPFQVVHDNYLLYVFAPDRESRQRWVLALKEETRNNNSLVPKYHPNFWMDGKWRCCSQLEKLATGCAQYDPTKNASKKPLPPTPEDNRRPLWEPEETVVIALYDYQTNDPQELALRRNEEYCLLDSSEIHWWRVQDRNGHEGYVPSSYLVEKSPNNLETYEWYNKSISRDKAEKLLLDTGKEGAFMVRDSRTAGTYTVSVFTKAVVSENNPCIKHYHIKETNDNPKRYYVAEKYVFDSIPLLINYHQHNGGGLVTRLRYPVCFGRQKAPVTAGLRYGKWVIDPSELTFVQEIGSGQFGLVHLGYWLNKDKVAIKTIREGAMSEEDFIEEAEVMMKLSHPKLVQLYGVCLEQAPICLVFEFMEHGCLSDYLRTQRGLFAAETLLGMCLDVCEGMAYLEEACVIHRDLAARNCLVGENQVIKVSDFGMTRFVLDDQYTSSTGTKFPVKWASPEVFSFSRYSSKSDVWSFGVLMWEVFSEGKIPYENRSNSEVVEDISTGFRLYKPRLASTHVYQIMNHCWKERPEDRPAFSRLLRQLAEIAESGL
For B1, the Signal to Noise ratio with BRB1 Peptide (TR-FRET kinase assay; kinase 0.5 nM) was 8.4.

B2: JAK2 (protein)
chain: RIGALGFSGAFEDRDPTQFEERHLKFLQQLGKGNFGSVEMCRYDPLQDNTGEVVAVKKLQHSTEEHLRDFEREIEILKSLQHDNIVKYKGVCYSAGRRNLKLIMEYLPYGSLRDYLQKHKERIDHIKLLQYTSQICKGMEYLGTKRYIHRDLATRNILVENENRVKIGDFGLTKVLPQDKEYYKVKEPGESPIFWYAPESLTESKFSVASDVWSFGVVLYELFTYIEKSKSPPAEFMRMIGNDKQGQMIVFHLIELLKNNGRLPRPDGCPDEIYMIMTECWNNNVNQRPSFRDLALRVDQIRDNMAG
Protein B2 has a Signal to Noise Ratio with BRB1 Peptide (TR-FRET kinase assay; kinase 1 nM) of 35.5.

B3: FES (protein)
chain: MGFSSELCSPQGHGVLQQMQEAELRLLEGMRKWMAQRVKSDREYAGLLHHMSLQDSGGQSRAISPDSPISQSWAEITSQTEGLSRLLRQHAEDLNSGPLSKLSLLIRERQQLRKTYSEQWQQLQQELTKTHSQDIEKLKSQYRALARDSAQAKRKYQEASKDKDRDKAKDKYVRSLWKLFAHHNRYVLGVRAAQLHHQHHHQLLLPGLLRSLQDLHEEMACILKEILQEYLEISSLVQDEVVAIHREMAAAAARIQPEAEYQGFLRQYGSAPDVPPCVTFDESLLEEGEPLEPGELQLNELTVESVQHTLTSVTDELAVATEMVFRRQEMVTQLQQELRNEEENTHPRERVQLLGKRQVLQEALQGLQVALCSQAKLQAQQELLQTKLEHLGPGEPPPVLLLQDDRHSTSSSEQEREGGRTPTLEILKSHISGIFRPKFSLPPPLQLIPEVQKPLHEQLWYHGAIPRAEVAELLVHSGDFLVRESQGKQEYVLSVLWDGLPRHFIIQSLDNLYRLEGEGFPSIPLLIDHLLSTQQPLTKKSGVVLHRAVPKDKWVLNHEDLVLGEQIGRGNFGEVFSGRLRADNTLVAVKSCRETLPPDLKAKFLQEARILKQYSHPNIVRLIGVCTQKQPIYIVMELVQGGDFLTFLRTEGARLRVKTLLQMVGDAAAGMEYLESKCCIHRDLAARNCLVTEKNVLKISDFGMSREEADGVYAASGGLRQVPVKWTAPEALNYGRYSSESDVWSFGILLWETFSLGASPYPNLSNQQTREFVEKGGRLPCPELCPDAVFRLMEQCWAYEPGQRPSFSTIYQELQSIRKRHR
In the case of B3, the Signal to Noise Ratio with BRB1 Peptide (TR-FRET kinase assay; kinase 1 nM) is reported as 24.9.

B4: FAK (protein)
chain: LANSEKQGMRTHAVSVSETDDYAEIIDEEDTYTMPSTRDYEIQRERIELGRCIGEGQFGDVHQGIYMSPENPALAVAIKTCKNCTSDSVREKFLQEALTMRQFDHPHIVKLIGVITENPVWIIMELCTLGELRSFLQVRKYSLDLASLILYAYQLSTALAYLESKRFVHRDIAARNVLVSSNDCVKLGDFGLSRYMEDSTYYKASKGKLPIKWMAPESINFRRFTSASDVWMFGVCMWEILMHGVKPFQGVKNNDVIGRIENGERLPMPPNCPPTLYSLMTKCWAYDPSRRPRFTELKAQLSTILEEEKAQQEERMRMESRRQATVSWDSGGSDEAPPKPSRPGYPSPRSSEGFYPSPQHMVQTNHYQVSGYPGSHGITAMAGSIYPGQASLLDQTDSWNHRPQEIAMWQPNVEDSTVLDLRGIGQVLPTHLMEERLIRQQQEMEEDQRWLEKEERFLKPDVRLSRGSIDREDGSLQGPIGNQHIYQPVGKPDPAAPPKKPPRPGAPGHLGSLASLSSPADSYNEGVKLQPQEISPPPTANLDRSNDKVYENVTGLVKAVIEMSSKIQPAPPEEYVPMVKEVGLALRTLLATVDETIPLLPASTHREIEMAQKLLNSDLGELINKMKLAQQYVMTSLQQEYKKQMLTAAHALAVDAKNLLDVIDQARLKMLGQTRPH
In the case of B4, the Signal to Noise Ratio with BRB1 Peptide (TR-FRET kinase assay; kinase 3 nM) is reported as 1.7.

B5: FRK (protein)
chain: MSNICQRLWEYLEPYLPCLSTEADKSTVIENPGALCSPQSQRHGHYFVALFDYQARTAEDLSFRAGDKLQVLDTLHEGWWFARHLEKRRDGSSQQLQGYIPSNYVAEDRSLQAEPWFFGAIGRSDAEKQLLYSENKTGSFLIRESESQKGEFSLSVLDGAVVKHYRIKRLDEGGFFLTRRRIFSTLNEFVSHYTKTSDGLCVKLGKPCLKIQVPAPFDLSYKTVDQWEIDRNSIQLLKRLGSGQFGEVWEGLWNNTTPVAVKTLKPGSMDPNDFLREAQIMKNLRHPKLIQLYAVCTLEDPIYIITELMRHGSLQEYLQNDTGSKIHLTQQVDMAAQVASGMAYLESRNYIHRDLAARNVLVGEHNIYKVADFGLARVFKVDNEDIYESRHEIKLPVKWTAPEAIRSNKFSIKSDVWSFGILLYEIITYGKMPYSGMTGAQVIQMLAQNYRLPQPSNCPQQFYNIMLECWNAEPKERPTFETLRWKLEDYFETDSSYSDANNFIR
Protein B5 has a Signal to Noise ratio with BRB1 Peptide (TR-FRET kinase assay; kinase 0.5 nM) of 9.7.

B6: JAK3 (protein)
chain: ALAPRDGLWNGAQLYACQDPTIFEERHLKYISQLGKGNFGSVELCRYDPLGDNTGALVAVKQLQHSGPDQQRDFQREIQILKALHSDFIVKYRGVSYGPGRQSLRLVMEYLPSGCLRDFLQRHRARLDASRLLLYSSQICKGMEYLGSRRCVHRDLAARNILVESEAHVKIADFGLAKLLPLDKDYYVVREPGQSPIFWYAPESLSDNIFSRQSDVWSFGVVLYELFTYCDKSCSPSAEFLRMMGCERDVPALCRLLELLEEGQRLPAPPACPAEVHELMKLCWAPSPQDRPSFSALGPQLDMLWSGSRGCETHAFTAHPEGKHHSLSFS
With B6 the Signal to Noise ratio with BRB1 Peptide (TR-FRET kinase assay; kinase 0.5 nM) was 16.1.

B7: FER (protein)
chain: KSGVVLLNPIPKDKKWILSHEDVILGELLGKGNFGEVYKGTLKDKTSVAVKTCKEDLPQELKIKFLQEAKILKQYDHPNIVKLIGVCTQRQPVYIIMELVSGGDFLTFLRRKKDELKLKQLVKFSLDAAAGMLYLESKNCIHRDLAARNCLVGENNVLKISDFGMSRQEDGGVYSSSGLKQIPIKWTAPEALNYGRYSSESDVWSFGILLWETFSLGVCPYPGMTNQQAREQVERGYRMSAPQHCPEDISKIMMKCWDYKPENRPKFSELQKELTIIKRKLT
Work on B7 yielded a Signal to Noise ratio with BRB1 Peptide (TR-FRET kinase assay; kinase 0.25 nM) of 31.

B8: CTK (protein)
chain: MAGRGSLVSWRAFHGCDSAEELPRVSPRFLRAWHPPPVSARMPTRRWAPGTQCITKCEHTRPKPGELAFRKGDVVTILEACENKSWYRVKHHTSGQEGLLAAGALREREALSADPKLSLMPWFHGKISGQEAVQQLQPPEDGLFLVRESARHPGDYVLCVSFGRDVIHYRVLHRDGHLTIDEAVFFCNLMDMVEHYSKDKGAICTKLVRPKRKHGTKSAEEELARAGWLLNLQHLTLGAQIGEGEFGAVLQGEYLGQKVAVKNIKCDVTAQAFLDETAVMTKMQHENLVRLLGVILHQGLYIVMEHVSKGNLVNFLRTRGRALVNTAQLLQFSLHVAEGMEYLESKKLVHRDLAARNILVSEDLVAKVSDFGLAKAERKGLDSSRLPVKWTAPEALKHGKFTSKSDVWSFGVLLWEVFSYGRAPYPKMSLKEVSEAVEKGYRMEPPEGCPGPVHVLMSSCWEAEPARRPPFRKLAEKLARELRSAGAPASVSGQDADGSTSPRSQEP
With B8 the Signal to Noise Ratio with BRB1 Peptide (TR-FRET kinase assay; kinase 20 nM) was 2.5.
